Molecular target: the molecule itself
Test: FRET by flow cytometry, mixtures of Annexin A5-FITC and Annexin A5-Alexa568 on PtdSer-coated paramagnetic beads
Description: Formation of two-dimensional lattices on the phospholipids surfaces was assessed FRET (fluorescence resonance energy transfer) analysis. Paramagnetic beads (1-4 μm in diameter) that were coated with a phospholipids bilayer containing PtdSer were incubated with mixtures of Annexin A5-FITC and Annexin A5-Alexa568 or mixtures of M23-FITC and M23-Alexa568. Fluorescence intensity of the beads was then measured by flow cytometry (Coulter Epics XL-MLC™) using an excitation of 488 nm and emission ranges of 515-530 nm (F11) and >600 nm (F13).

B1: Annexin A5 (other)
chain: AQVLRGTVTDFPGFDERADAETLRKAMKGLGTDEESILTLLTSRSNAQRQEISAAFKTLFGRDLLDDLKSELTGKFEKLIVALMKPSRLYDAYELKHALKGAGTNEKVLTEIIASRTPEELRAIKQVYEEEYGSSLEDDVVGDTSGYYQRMLVVLLQANRDPDAGIDEAQVEQDAQALFQAGELKWGTDEEKFITIFGTRSVSHLRKVFDKYMTISGFQIEETIDRETSGNLEQLLLAVVKSIRSIPAYLAETLYYAMKGAGTDDHTLIRVMVSRSEIDLFNIRKEFRKNFATSLYSMIKGDTSGDYKKALLLLCGEDD
modifications: FITC or Alexa568-succinimidylester coupled to amines (positions not stated)
notes: The FRET assay used mixtures of Annexin A5-FITC and Annexin A5-Alexa568 on paramagnetic beads coated with a PtdSer bilayer; also called Annexin A5-FITC; Annexin A5-Alexa568
binding result: binds

Source: patent US20060009381A1 (I P RANDYWYCK B V, published 2006)
